Measurements as given in patent publication US20250367270A1.
pKd: −log10 of the molar value.

Biological target: SARS-CoV-2 recombinant spike HexaPro protein (SARS-CoV-2) (UniProt P0DTC2)
Assay: SPR

**Q.** “ACE2 monomer construct (SS-ACE2-Linker) (from UniProt Q9BYF1 19-614)” was tested. Which pKd did it give?
**A.** Its pKd is 7.14.
